Experimental data as given in the domain aggregation screens of Martell et al. (2025).

Test: soluble fraction after stress (log2 fold change); higher = more stays soluble; pooled small domains, quantitative proteomics
Conditions: stress: 50 degC
Method in brief: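 Each library was heated to 50°C as a stress step. The libraries, made up of small protein domains, were pooled and analysed at high throughput by quantitative proteomics. The reported value is the base-two logarithm of the fold change in each protein's soluble amount after stress, taken as a measure of aggregation propensity. The higher the value, the more protein stays in solution.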
In the case of “HMSEMLPFDEARRQFERDYLVQLLKLTSGNVSQAARLARRNRTDFYALLGRHQLEPASFKPE”, the “soluble fraction (log2)” value is reported as -0.298. With “HMEWEVHSVTVTPELSGERLDVAATALLSQFSRALVQRWIDANELTLNERPVKAKSKVRVGDLIAVKAK” the “soluble fraction (log2)” value was -0.874. In the case of “HMTGVPYLVRVKITDLHIRSGPGTNYASKGFIAPGAYTIVEESTGQGAALWGKLKSGKGWIALGYTEK”, the “soluble fraction (log2)” value is reported as -1.09. In the case of “HMNSKMTYSELITSMENKEVESVKISSSGDVASVKLKNSKTEKEVKIPSLDSFMTYTEQYLKTGEITLEE”, the “soluble fraction (log2)” value is reported as 0.175. For “HMKELLDRIFLHETMRRVSQDATITFSKKVYEVPQKFIGRQVTVQYDPEDLSRVYVKDLNFPEPVMVYPVQ”, the “soluble fraction (log2)” value was -0.843. For “HMTGIQDVPALETRRVGNTFFFDRATDVQVYDLQGRLLQQARKVTSVSIGHLQQGVYVLTDGRASVKVQ”, the “soluble fraction (log2)” value was -1.23. In the case of “HMNKSGVVLIRVTVDASGRVTSAAYEPKGSTTSDVELVAEARKAALRTRFTESRTVIEGGVITYIFKL”, the “soluble fraction (log2)” value is reported as -2.28. In the case of “HMVDDNFGLGEVTDQNYLTVLGRALDLIGWTDEQADSYSLKTFGVPHWDELGRSQAEKLVAHLIGLLKEQM”, the “soluble fraction (log2)” value is reported as -0.33. In the case of “HMWTIDPLDWKTENADQIVEKVMSEAKENAIILLHDRYEASVEAALRIVDLLKEQGYTFVTADKLV”, the “soluble fraction (log2)” value is reported as -0.257. For “HMNKIGTIVSINGPIVKTAGDVGFVMHEMVYVGKEKLVGEVIGLTTDFTIVEVYEETSGIKPGETIEGT”, the “soluble fraction (log2)” value was -1.5. For “HMLSLKAQVYEIIRQKILQQEYALGEKINIDTVADELKISNSPIREALMMLSQDGLIEMVPNNGARVI”, the “soluble fraction (log2)” value was -0.772. In the case of “HMKSNIIPLSLKKPQRLDIFLTNYFVDLSRTQIKKMITDGNIKVNDLIAKPSLKLIGDEIIFYTLPK”, the “soluble fraction (log2)” value is reported as -1.24. With “HMTGELEVTAAGLSPEKLLNLAAKNHITLSNVKRLSYTQLSFRIGPADYNRLKKLLPEGRYKLNVGSS” the “soluble fraction (log2)” value was -0.289. In the case of “HMTDFESYTVRVTATNLNIRKGAGTNFHSAGYIKPGVYTIVEEADGKGATRWGKLKSGMGWISLDYAKK”, the “soluble fraction (log2)” value is reported as -0.763. For “HMPTNSDRLIGSDGVVSSKIDNLQGTGKVYISGLTWSARTIDGSEAEEGDIVTVEKIEGATLYVTKR”, the “soluble fraction (log2)” value was 0.0599. With “HMTEWDDATVKDAVEYFMSVNGRVPTVTDFKKENGLPSHPVIKQRYKINLHEWLNKNFPTYY” the “soluble fraction (log2)” value was -0.544. For “HMVGAEDISKPMNLGALMRTAHAFGASFFFTINAHPKVRHAYNSDTSRSFDHMPYYPWDTMEE”, the “soluble fraction (log2)” value was 0.129. For “HMSLPTSDWKRALSLFDEALSLPPDARDAWLAHTIAREPAVSPLLQKLLGAHRRVETNDILATLPR”, the “soluble fraction (log2)” value was -0.286. In the case of “HMEMNPLDIQNKAAELAQQWLQLPVGERQKQMAAVRTSNPNLHAMAKQKMEEMRSQAESQGRQSLSQP”, the “soluble fraction (log2)” value is reported as 0.0359. In the case of “HMKSKYLIKIEGDFDEKDLYKYLINVSIVNHTKNNGFTEVEFYNDNYSLQQNFLKSMLNDGIIITEFKKVE”, the “soluble fraction (log2)” value is reported as -0.115. With “HMEDPVAQEARAAFEVGRLLAAATGPVTLAAIRRAIDLPEERLEEILRRLEESGAVRRARDGWLPG” the “soluble fraction (log2)” value was 0.0888. For “HMANLDSLIKKVGQYAKDKQSISVDGIKKDLSIDKDMVKEALAELLKIGVVDKPDEAGQYKVIM”, the “soluble fraction (log2)” value was 0.299. For “HMAIDLPVTTVNGKDYYYYDVQPKETIFSLSQRLGISREEIISYNPGVDGGLKAYTRLYFPVESGL”, the “soluble fraction (log2)” value was -0.201. In the case of “HMTAVNEHELMNQFKLSLGYANGDDPQTKLSTDEKNDFMRFKEWATAMTKDSKMGKDPDYLKKLAVQWTLK”, the “soluble fraction (log2)” value is reported as 0.214. With “HMADYYETLGVERTASEEDIKRAYRKMSRKYHPDIAGPEFEEKFKEVNTAYEVLSDPDKRRMYDAGVDPND” the “soluble fraction (log2)” value was 0.0489. In the case of “HMDVLSQYGSRGEEVGKIQTRLKSWGYFSGEVTGYYGSQTTEAVKRFQQKHGLSATGVADRKTLELIGIS”, the “soluble fraction (log2)” value is reported as -0.108. For “HMTTGEIIQRERTRLGLSQEKLAEQVGVSRQAVSKWELGDAVPDTDKLVPLARTLGISVDTLLD”, the “soluble fraction (log2)” value was 0.0247. For “HMAPEPFILSVDADGKYYIDDLEKTKQEILIYATALYQEKPTTDFLVRGDKSAAYNDVLQAMVVLKE”, the “soluble fraction (log2)” value was -0.0406. With “HMRGFGEVGQLPSGRYRARYTGPDGGRHSAPITFVARIDAEGWLVDQERMISRGEWEPPARQ” the “soluble fraction (log2)” value was -0.224. With “HMNFTEAEQRFHFLEDQRQRGVLSLEQYRAELAQLRVTDAWGRLWMLQEQTGQWFVFHEGQWRPSQ” the “soluble fraction (log2)” value was -0.124. With “HMKSYAQIAEILSGQQPNTSRKEGSNLAVHADWIDALIAKYGTALRPEEANEVVKKEIGIVFSHVLEN” the “soluble fraction (log2)” value was -0.0639. In the case of “HMEGEVVESPLVGVAYLASGPDKPAFVQVGDSVSKGQTLLIIEAMKVMNEVPAPRDGIVTEILV”, the “soluble fraction (log2)” value is reported as 0.0266. For “HMGKQPLYEQLVDLLRDRIENDMETGELLPSERKLAHHFGLSRTTVRLAMDRLETLGLITRVHGKDTFVAE”, the “soluble fraction (log2)” value was -1.17. In the case of “HMIPDAIDPDGRFKWRAGEAVVGFGRHAGEPLKKIAIENPEFLRWILKADFSTDVKKIASDALKGYFPEK”, the “soluble fraction (log2)” value is reported as -0.23. With “HMKDIIVLGAIQAGIKKFDKIQKMTQIEPEELNSILEQLENRGFIQVAEKSGLLGKKIEILVTEKGSNEVD” the “soluble fraction (log2)” value was 0.442. With “HMSSIRDVVPEGLLSDREKLVLVLAFDRDLDGPDMARTLGISANTVRVLKARALKKLRQAGIQP” the “soluble fraction (log2)” value was -0.957. In the case of “HMQSHIVPDVKSQHIAQAKALLESKQMKAVVIDSNFVKGLPAGIVLDQTPIGGARVKENRTIYLTINTL”, the “soluble fraction (log2)” value is reported as -0.557. In the case of “HMDNVQLRNFAIKATEASIIYLDQEQRNFFWYNNNKKLMTVPFDENPYSAFAAYLKTDEGSEVYKAIEKKF”, the “soluble fraction (log2)” value is reported as -1.68. In the case of “HMSDQTYVKDPETGEIFRVHKRVWETGEFWRDPVWGNILGGVERGSELERLLREEGWRPLQQSLEGFPEQ”, the “soluble fraction (log2)” value is reported as -0.104. In the case of “HMTHSEYVGRHGIAATSLRPAGAATIDGSRVDVVTSGEYIEKGTPIEVMTVNGSTVRVKAVPQIP”, the “soluble fraction (log2)” value is reported as 0.0508. With “HMSIQMPDLSITPVTDAKKKIESLQLQYKEVGEYNDSVIAGYVIRTEPASGSYLNEDEEVIIYVSKG” the “soluble fraction (log2)” value was -0.246. For “HMGYTTSFVVQLKNAVSISFDEIDQNLRKLPGVEDVVIVEEAAMAYLKVDRQHFREEQLAHFEFVRQ”, the “soluble fraction (log2)” value was -0.29. For “HMHRTMFYLDVDLAEGQSVKMAVHEDDDPGELAARFADEHQLKSRAMEKLRSVIEENVRLHRRNQ”, the “soluble fraction (log2)” value was -0.306. For “HMKQVNVVSVIGQSEANAKTTLTGLGLKVNVAYEEDTSKADGIVLKQSLEGGKTVNEGTTITITVNKIA”, the “soluble fraction (log2)” value was -0.0302. In the case of “HMNTPNYDVLYRGLADADAGQIMEALQKSNIPFKVDSHSGVLLVPADQVHEARLKLASQGLPRG”, the “soluble fraction (log2)” value is reported as 0.0262. With “HMQIDDSVELSAIVEKLLAANPEQVEQLKNGKTKVLGYFVGLAMKETQGRANPQKVNELIQTHL” the “soluble fraction (log2)” value was -0.174. With “HMEVFGDTKEEQMIIDILKLGITDLEHLQAKSMLEPAIFSQTLTMLEISGKIRPLGAGHWTL” the “soluble fraction (log2)” value was -1.04. In the case of “HMQSMEIDENEIPSIDKLSEYIEYFKRIYNALFDDKQLAITNIDVLERHFANNFNTLRFKMDE”, the “soluble fraction (log2)” value is reported as -0.0595. With “HMTKTEFLEALRRALNGNMAAASVEDNLKFYENYFYSEEAKGRSEAAVLSELGDPRILARTLIDAAER” the “soluble fraction (log2)” value was 0.0765. For “HMEPFEQLLDRITSQTGKEPEEVVARMNELITERFDGNIRPEAALVIVAKRDNIQFMDLLDQLKQALL”, the “soluble fraction (log2)” value was -0.516. In the case of “HMGAIVTGTVVEIRSDVVIVNAGLKSEGVVPIEQFRNEAGELEVSVGDEVKVALDALEDGFGETRLS”, the “soluble fraction (log2)” value is reported as -0.329. For “HMSIHPRDKADLGTALSKWKKGALDDKQLELEVARVFMRTYGKKLEGQALNKAVAAWVAALTQSKK”, the “soluble fraction (log2)” value was 0.506. With “HMTATVPDSEAGIRLDVYAAALLGVSRAGAQKYIESGAVRVNGLPAPKNRRLESGDVIEAVLPDPE” the “soluble fraction (log2)” value was 0.157. With “HMIAITVGSKVRVKAGATFSDGTKPFTEVYNTVYDVQLLSRNGKEARIGIGEQWTGWMYISDLYPADQ” the “soluble fraction (log2)” value was -0.359. For “HMVELVKVPALQGETVDEAIADIKDAGLEPGQVRYVESDLPKDTVTYQSVDAGEQVKAGTVINLQASKGP”, the “soluble fraction (log2)” value was 0.251.
